The data set in a line: label from the status in PepcDB records.
For “MRPADRCRSPTGRPATGRHRPDIFTNTVEWDAFEAAPLYGDTTSSFVCQSRMTGEYFPKMGGHAMKNRLACTAVIAAIFCTTSASAQKLPEIWEVTKLVPGSAFHGVHGLGIDKAGHLFAGSVAGAMLYEVDIASGTAKVAIPAPIGMADDIAFAPDGTMAWTGFLAGDLYSRKGDGPIKKLASGLPGINSLAFRKDGRLYATTVFLGDTLYEIDVEGVKPPRQIMEKMGGLNGFEFGPDDKLYGPLWFKGQVAKVDVDKAELTVVADGFKVPAAVNFDSKGNLWVVDTALGQLVRVDPKSGAKTMVAQLKPSLDNLAIDEKDRIYVSNMADNGIQEVDPASGQAKQIIIGKLALPGGIGVTSENGKDTIHVADVFAYRTVDGTTGEVTEKARMHAAGVTLEYPMSATAKGNDVILSSWFTGTVQVIDNKTGATRDMLHDFKAPHDAIVLEDGSILVAELGTKSLVRVSGEHGKDRTTLIGDLEGPVGLVAGSRGEVYVTEAFAGVVSKIEQNGEKTVLVKELKMPEGLARTSDGKLIVAEVGARRLIEITPEDGKITEIAADLPIGLAGAPGGLPTHIPTGVAIGATGVIYFSSDIENAIYKAVKK”, the protein production result is listed as “failed”.

“MSIRIDRQRCIGCGKCAEICPGNLIVIDEDKKAFVRDPRDCWGCAACVKECKFSAIRYFLGAEIGGNGTTMYVEKENDEIMYWYFEKPSGEKEMIVQNLKDNTTYLEHHHHHH”: the protein production entry is listed as “failed”.

Take “MNEQQRLASQQVNSSTKKEEKDYSKYFESVYQPPSLKEAKKRGKEEVKIERDFGLPEEFRNFGTGRKFYIRTYGCQMNEHDTEVMAGIFTALGYEPTFSTEDADVVLLNTCAIRENAENKVFGELGHLKALKRRNPDLLIGVCGCMSQEESVVNKIMQKNQHVDMVFGTHNIHRLPYILKDAMFSKETVVEVWSKEGDVIENLPKVRRGDIKAWVNIMYGCDKFCTYCIVPYTRGKERSRRPEDIIQEIRHLAANGYKEITLLGQNVNAYGKDFEDIEYGLGDLMDELRKVDIARIRFTTSHPRDFDDHLIEVLGKGGNLVEHIHLPVQSGSTEMLKIMARKYSREHYLELVRKIKEAIPNAVLTTDIIVGFPNETDEQFEETMSLYREVGFDTAFTFIYSPREGTPAAKMKDNVPMEVKKERLQRLNALVNKLAIEKNDRYKGQIVEVLVDGESKNNPEVLAGYTRTNKLVNFVAPKSLIGQLVKVKVTDAKTWSLNGELVEEPIEVELEHHHHHH”: the protein production entry was “failed”.

As for “MEKFTLSRIINIIMFLYILSIYLFTFRDGLNSISNFLALTFIAAIWSNVLLTRKKIVFNKFLFIYFLFILVCFVSVFFAINQSIAVSKIKTIILIYFLMISLVNYIDTFEKLRSFLLSFVYSGFITGVYILASSDFSQVTRYGSELGNVNSIGMIIGISSIFCFYFIIEEKKYLLYTPIMLINIFVVFLTGSRKALLFVVLTIIAILLIQQKAGIKGKIKALIGILVTLVISLYVIFNVELLYTIIGVRMEHLFSYILGKGANEGSINIRANMIDMGLDWFQERPITGYGIDNFRSLYGIEAIGGEFTYSHNNLVELLVGIGIIGTFLFYLTHFIVLKGLYKESKKNQKSALCYSFIAIIGIYIILSVGLIYYYDKHISMILAIGSIIYKIGKPSGEELTQKTLE”, the protein production result was “failed”.

With “MELEQKLNLLNDLIVREIVNPLPPPYKVGVDLGTADIVLVVTDQEGIPVAGALKWASVVKDGLVVDYIGAIQIVRELKAKVERLLGSELFQAATAIPPGTVGRNAEACGHVVAGAGLELVTLVDEPVAAARALGINDGIVVDIGGGTTGIAVIEKGKITATFDEPTGGTHLSLVLAGSYKIPFEEAETIKKDFSRHREIMPVVRPVIEKMALIVKEVIKNYDQTLPVYVVGGTAYLTGFSEEFSRFLGKEVQVPIHPLLVTPLGIALFG”, the protein production entry was “not failed”.

Regarding “MIREFFQKYFIDPIKYNTGYNPVNTLVYAIILGIATLLVYKVLKRLKIEINNAFFRALIPYMIFGAFTRALTDAGVFPRTYLTVSPGIYFLVFVIAFSALLVSHKFAKDWRGVFLWFGWGLVMVDLAAMSANISKINFDFAVLKYFIPFLILAELVVFLLSKKVSLVRENSYLFYAHFYDATTTFVGVDFMGYWEQHVLPRLLIGLTGTAAVMYVLKFIILFAAVWLLKELEKEGEEKELLDFIKMVIFILGFAPGTRNLLRMLMGV”, the protein production result was “failed”.

Regarding “MTIRRLTPTPRAVDWGLFGAVATLLATGVATIFAGIPSSAWIIDLHALSGVVLTLLLPVKLRRVFHRVAPSRLTGTRVLSVGLAAVTLGALGTGVWWIFGGTLDLGPWGLFHLHVALGLLVPPLLLVHLRARFYSPAQATCGGRRDVLRYAGLVTAGALLWRVQGPVNDALDTAGADRRYTGSREEGTDDGNRFPVTSWVADDPDPVDAADWSLSVAGRVAHEASYVAGDLSPDATESAVLDCTSGWYSGHEWQGVRVGDLLDAADPDDAAAWVQFRSITGYRWSLPLSEARDAVLATHVDGERLAHGHGYPLRLVAPGRRGFQWVKWVESVRVSKRRELGEWLAIFVSGL”, the protein production entry was “failed”.

With “AIDENKQKALAAALGQIEKQFGKGSIMRLGEDRSMDVETISTGSLSLDIALGAGGLPMGRIVELYGPESSGKTTLTLQVIAAAQREGKTCAFIDAEHALDPIYARKLGVDIDNLLCSQPDTGEQALEICDALARSGAVDVIVVDSVAALTPKAEIEGEIGDSHMGLAARMMSQAMRKLAGNLKQSNTLLIFINQIRMKIGVMFGNPETTTGGNALKFYASVRLDIRRIGAVKEGENVVGSETRVKVVKNKIAAPFKQAEFQILYGEGINFYGELVDLGVKEKLIEKAGAWYSYKGEKIGQGKANATAWLKDNPETAKEIEKKVRELLLSNPNSTPDFSVDDSEGVAETNEDF”, the protein production entry was “not failed”.

Take “SHPCFVQGRPELLSQIKRKQSARTVEDKQVNEQTQQNLEVVMAEMRAMREKAKNMEDKMNKLTKENRDMWTQMGSMRQQHARQQQYFKKLLHFLVSVMQPGLSKRVAKRGVLEIDFCAANGTAGPNSKRARMNSEEGPYKDVCDLLESLQRETQEPFSRRFTNNEGPLISEVTDEFGNSPVGRGSAQDLFGDTFGAQSSRYSDGGATSSREQSPHPIISQPQSNSAGAHGANEQKPDDMYMGSGPLTHENIHRGISALKRDYQGASPASGGPSTSSSAPSGAGAGARMAQKRAAPYKNATRQMAQPQQDYSGGFVNNYSGFMPSDPSMIPYQPSHQYLQPHQKLMAIEDQHHPTTSTSSTNADPHQNLYSPTLGLSPSFDRQLSQELQEYFTGTDTSLESFRDLVSNHNWDDFGNNVPLDDDEEGSEDPLRQLALENAPETSNYDGAEDLLFDNEQQYPENGFDVPDPNYLPLADEEIFPHSPALRTPSPSDPNLV”: the protein production entry was “not failed”.

Take “MTRRPLLLPALGLALGVGLGLEGATVPPAALGALPLALLPRLAPLAFAAAGWLAAASARVPPAAPPDGAVLVRGRVVGAPDRLEDRLRFPVRTAGGALLEAWAEPTPWPLALGDEVLFRATLRAPAGRRNPGGRDPGDRLRSGGAALVALADGPVVRTAAPAAASRLERARDRLAEAAGRWLPPDQAALVRAIGTGDRAALDPEASASFARSGLAHVLAVSGFHLVVVAFGLERLLRALLLRADAVAARADPRRVAAALTLPCALLYALATGAGAPVVRAALAAAVILAGALLDRAADPLNSLALAALAILAAEPAALLDASFQLSFAAVAGLALWATPLRGALPVARPAPGSWRARLLEPFLSGAAATVAATLATAPVLAFHFRQLPLLGVAANVAAIPLGAALTALAALAAVAAAASPLAAAPFLLAAGPLAAALRAVSDAAAAPRWGAVGLASPGGWAAAAATALVLGVPALPRRLRLGAGALAAALLLLPGPLRAAAARARGGLEVIFVSVGQGDAALLRLPDGSAVLVDGGGAAGGGPDPGARDLVPLLRDLGVRRLEAVFVSHPHPDHVLGLEAVARAFPVARAYSNGDRGDGPAREVLAALAPVTLAPGEAWERAGVRFEALGGDRTPFAANDASLVLRATYGATTFLFPGDVEAAGEAAAVARGGLRADVVKIPHHGSRTSSTEPFVRAVRARWAVACLGAHNRFGFPHPEPLARWAAAGAEVLRTDEGAVRFLSDGRAVRRVEAGSVLDALATWREQP”: the protein production entry was “failed”.

Turning to “MSELDVEAVDDINAPAGIDAAEYVLYGGKGGVGKTTCAAATALASARDDTATLVVSTDPAHSLSDTLDADIPATPTRIREDIPLYAAEIDPEAAVGEGPLGVEEDALGGVGELLGGDGMFGGGAGGAAGAGQAEDPIGGEEGLLGGSMPGADEAAALRLLLDYVDDDRFDRVVIDTAPTGHTLRLLELPETMDSMVGKILQLRERFSGMMDNLTGMFGDDQDVDAEAGIEDLQELSDRIEHLRGILQDPQRTDFRIVMVPEELSVVESERLLAQLGEFNIPVSTVVVNRVMQDPSEVLGEDVDIAGPNHADCEFCARRWQVQQDALARSQDMFRGHDVRRVPLFAEEVRGERLLSVVAACLD”, the protein production result is “failed”.
